16 substances from patent US20030108992A1 can be followed below.

One test concerns the target Fas 1-210:YFP (human) (UniProt P25445). As to the kind of experiment: CFP dequenching after YFP photobleaching, fluorescence microscope.
The target in a further test is p60 TNFR (endogenous) (UniProt P19438). As to the kind of experiment: cell-based or functional assay.
Test [1] has as its target p60ΔCD-HA R77A (UniProt P19438). Nature of the test: flow cytometry of transfected cells; normalized against HA staining.
For test [2], the target named is p60ΔCD-HA K32A (UniProt P19438). The description is as above.
For test [3], the target named is p60ΔCD-HA T61A (UniProt P19438). Described as above.
Test [4] has as its target p60 55-211 (UniProt P19438). The test is described as above.
Test [5] addresses p60ΔCD-HA DT49/50AA (UniProt P19438). The description is as above.
In test [6] the target is p60ΔCD-HA Q24A (UniProt P19438). The test is described as above.
In test [7] the target is p60ΔCD-HA E57A (UniProt P19438). Described as above.
Test [8] deals with p60ΔCD-HA KY19/20AA (UniProt P19438). The test is described as above.
For test [9], the target named is p60ΔCD-HA W108T (UniProt P19438). The description is as above.
The target in test [10] is p60ΔCD-HA N66F (UniProt P19438). Described as above.
Test [11] addresses p60ΔCD-HA L112E (UniProt P19438). Described as above.
Test [12] deals with p60ΔCD-HA K19E (UniProt P19438). The description is as above.
Test [13] addresses p60ΔCD-HA (UniProt P19438). The description is as above.
For test [14], the target named is p60ΔCD-HA R77A (UniProt P19438). As to the kind of experiment: flow cytometry of transfected cells; % MAB225 positive / % HA positive.
Test [15] addresses p60ΔCD-HA K32A (UniProt P19438). The test is described as above.
Test [16] concerns the target p60ΔCD-HA T61A (UniProt P19438). The test is described as above.
For test [17], the target named is p60 55-211 (UniProt P19438). Described as above.
The target in test [18] is p60ΔCD-HA DT49/50AA (UniProt P19438). The description is as above.
Test [19] concerns the target p60ΔCD-HA Q24A (UniProt P19438). The description is as above.
The target of test [20] is p60ΔCD-HA E57A (UniProt P19438). The description is as above.
Test [21] concerns the target p60ΔCD-HA KY19/20AA (UniProt P19438). The test is described as above.
The target in test [22] is p60ΔCD-HA W108T (UniProt P19438). The description is as above.
Test [23] deals with p60ΔCD-HA N66F (UniProt P19438). The test is described as above.
The target of test [24] is p60ΔCD-HA L112E (UniProt P19438). The test is described as above.
Test [25] deals with p60ΔCD-HA K19E (UniProt P19438). The description is as above.
Test [26] concerns the target p60ΔCD-HA (UniProt P19438). Described as above.

Bounds are passed on as bounds.

For “Fas 1-210:CFP (from UniProt P25445 17-226) (receptor)”, the FRET efficiency in the test with Fas 1-210:YFP (human) was 16%.

Turning to “p60 55-211 (from UniProt P19438 55-211) (receptor)”, the DOMINANT … (protection against TNF-induced death) in the test with p60 TNFR (endogenous) is less than 5 % protection.

On to “p60-specific monoclonal antibody clone 4.12 (Zymed)”, for which the clone 4.12 staining normalized to HA staining (ratio, p60ΔCD set at 1) with p60ΔCD-HA R77A [1] amounted to 0.99; in the test with p60ΔCD-HA K32A [2], 0.01; with p60ΔCD-HA T61A [3] it was 1.28; with p60 55-211 [4] it was 0.02; in the test with p60ΔCD-HA DT49/50AA [5] it was 0.96; in the test with p60ΔCD-HA Q24A [6], 0.97. The clone 4.12 staining normalized to HA staining (ratio, p60ΔCD set at 1) with p60ΔCD-HA E57A [7] worked out at 0.04; with p60ΔCD-HA KY19/20AA [8], 0.14; with p60ΔCD-HA W108T [9] it was 1.11; with p60ΔCD-HA N66F [10], 0.04; with p60ΔCD-HA L112E [11], 1.27; with p60ΔCD-HA K19E [12] it was 1.07. Further, the clone 4.12 staining normalized to HA staining (ratio, p60ΔCD set at 1) in the test with p60ΔCD-HA [13] was 1.

Regarding “p60-specific monoclonal antibody clone MAB225 (R&D Systems)”, the MAB225 staining normalized to HA staining (ratio, p60ΔCD set at 1) in the test with p60ΔCD-HA R77A [14] is 1.06; with p60ΔCD-HA K32A [15], 0.36; in the test with p60ΔCD-HA T61A [16] it was 1.42; with p60 55-211 [17], 0.87; with p60ΔCD-HA DT49/50AA [18], 1.16; with p60ΔCD-HA Q24A [19], 1.06. Also, the MAB225 staining normalized to HA staining (ratio, p60ΔCD set at 1) with p60ΔCD-HA E57A [20] came to 1.68; with p60ΔCD-HA KY19/20AA [21], 0.59; in the test with p60ΔCD-HA W108T [22], 1.32; with p60ΔCD-HA N66F [23], 0.67; with p60ΔCD-HA L112E [24], 1.31; with p60ΔCD-HA K19E [25], 1.05. Further, the MAB225 staining normalized to HA staining (ratio, p60ΔCD set at 1) in the test with p60ΔCD-HA [26] was 1.

“p60ΔCD-HA (from UniProt P19438 30-240) (receptor)” came in with a DOMINANT … (protection against TNF-induced death) (% of p60ΔCD wild type) with p60 TNFR (endogenous) of 50.

Substance “p60ΔCD-HA DT49/50AA (from UniProt P19438 30-240) (receptor)” showed a DOMINANT … (protection against TNF-induced death) (% of p60ΔCD wild type) in the test with p60 TNFR (endogenous) of 50.

Regarding “p60ΔCD-HA E57A (from UniProt P19438 30-240) (receptor)”, the DOMINANT … (protection against TNF-induced death) (% of p60ΔCD wild type) in the test with p60 TNFR (endogenous) was determined as 50.

“p60ΔCD-HA K19E (from UniProt P19438 30-240) (receptor)” yielded a DOMINANT … (protection against TNF-induced death) (% of p60ΔCD wild type) with p60 TNFR (endogenous) of 50.

In the test with p60 TNFR (endogenous), “p60ΔCD-HA K32A (from UniProt P19438 30-240) (receptor)” showed a DOMINANT … (protection against TNF-induced death) of less than 5 % protection.

In turn, “p60ΔCD-HA KY19/20AA (from UniProt P19438 30-240) (receptor)” showed a DOMINANT … (protection against TNF-induced death) in the test with p60 TNFR (endogenous) of less than 5 % protection.

In the test with p60 TNFR (endogenous), “p60ΔCD-HA L112E (from UniProt P19438 30-240) (receptor)” returned a DOMINANT … (protection against TNF-induced death) (% of p60ΔCD wild type) of 50.

Consider “p60ΔCD-HA N66F (from UniProt P19438 30-240) (receptor)”, for which the DOMINANT … (protection against TNF-induced death) (% of p60ΔCD wild type) with p60 TNFR (endogenous) amounted to 50.

“p60ΔCD-HA Q24A (from UniProt P19438 30-240) (receptor)”: the DOMINANT … (protection against TNF-induced death) (% of p60ΔCD wild type) in the test with p60 TNFR (endogenous) was 50.

For “p60ΔCD-HA R77A (from UniProt P19438 30-240) (receptor)”, the DOMINANT … (protection against TNF-induced death) (% of p60ΔCD wild type) with p60 TNFR (endogenous) stood at 50.

“p60ΔCD-HA T61A (from UniProt P19438 30-240) (receptor)” had a DOMINANT … (protection against TNF-induced death) (% of p60ΔCD wild type) in the test with p60 TNFR (endogenous) of 50.

Substance “p60ΔCD-HA W108T (from UniProt P19438 30-240) (receptor)” showed a DOMINANT … (protection against TNF-induced death) (% of p60ΔCD wild type) with p60 TNFR (endogenous) of 50.
